Test results: patent US20090181041A1 (published 2009)

How the values were obtained:
DC-SIGN/Fc chimera = molecular target: T1, DC-SIGN/Fc chimera (human, UniProt Q9NNX6 62-404); assay: SPR (Biacore 2000), receptor amine-coupled on CM5 chip, fusion protein as analyte, apparent Kd from steady state
T1 construct: Amine-coupled to a CM5 chip at 8312 RU; also called CD209; dendritic cell-specific ICAM-3-grabbing nonintegrin; Fc part of the bought chimera not given
T1 sequence (looked up): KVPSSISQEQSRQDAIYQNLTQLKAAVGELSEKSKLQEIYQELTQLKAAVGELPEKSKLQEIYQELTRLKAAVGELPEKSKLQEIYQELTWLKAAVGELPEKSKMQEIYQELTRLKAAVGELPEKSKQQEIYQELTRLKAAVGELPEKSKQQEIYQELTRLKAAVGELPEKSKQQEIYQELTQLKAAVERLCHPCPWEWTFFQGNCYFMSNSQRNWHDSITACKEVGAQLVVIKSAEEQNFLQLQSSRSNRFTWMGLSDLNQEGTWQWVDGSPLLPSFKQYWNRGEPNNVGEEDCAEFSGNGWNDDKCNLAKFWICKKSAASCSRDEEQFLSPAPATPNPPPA
Description: (§1) Immunoglobulin fusion proteins of PSGL-1 and AGP produced in wild type Pichia and purified, as described in Example 1, were used in experiments to assess their ability to bind to recombinant human macrophage mannose receptor (MMR), DC-SIGN/Fc chimera and mannan binding lectin (MBL) Using Biacore (real time surface plasmon resonance spectroscopy) analysis as follows.
(§2) Analyses were performed using a Biacore 2000 instrument (Biacore, GE Healthcare, Uppsala, Sweden). Recombinant human macrophage mannose receptor (MMR), DC-SIGN/Fc chimera and mannan binding lectin (MBL) were purchased from R & D Systems and immobilized on a CM5 sensor chip using amine coupling chemistry according to the manufacturer's instructions. Briefly, activation of the surface was made with EDC/NHS 1:1, 10 μL/min for 7 minutes and the receptors were dissolved in sodium acetate buffer pH 4.5 at concentrations of 15 μg/ml for MMR, 10 μg/ml for DC-SIGN and 90 μg/ml for MBL and immobilized at 10 μl/min for 7 minutes. Deactivation of excess of reactive groups was made with ethanolamine, 20 μl/min for 7 minutes. […] Data were calculated using BIAevaluation 4.1 software (Biacore, GE Healthcare) and the apparent equilibrium dissociation constants (Kd) were calculated by plotting steady state binding levels against the analyte concentrations for several concentrations simultaneously. […]

[1] = molecular target: T2, Recombinant human macrophage mannose receptor (MMR) (human, UniProt P22897 19-1383, limits assumed); assay: as above
T2 construct: Bought; Amine-coupled to a CM5 chip at 13745 RU; also called CD206
T2 sequence (looked up): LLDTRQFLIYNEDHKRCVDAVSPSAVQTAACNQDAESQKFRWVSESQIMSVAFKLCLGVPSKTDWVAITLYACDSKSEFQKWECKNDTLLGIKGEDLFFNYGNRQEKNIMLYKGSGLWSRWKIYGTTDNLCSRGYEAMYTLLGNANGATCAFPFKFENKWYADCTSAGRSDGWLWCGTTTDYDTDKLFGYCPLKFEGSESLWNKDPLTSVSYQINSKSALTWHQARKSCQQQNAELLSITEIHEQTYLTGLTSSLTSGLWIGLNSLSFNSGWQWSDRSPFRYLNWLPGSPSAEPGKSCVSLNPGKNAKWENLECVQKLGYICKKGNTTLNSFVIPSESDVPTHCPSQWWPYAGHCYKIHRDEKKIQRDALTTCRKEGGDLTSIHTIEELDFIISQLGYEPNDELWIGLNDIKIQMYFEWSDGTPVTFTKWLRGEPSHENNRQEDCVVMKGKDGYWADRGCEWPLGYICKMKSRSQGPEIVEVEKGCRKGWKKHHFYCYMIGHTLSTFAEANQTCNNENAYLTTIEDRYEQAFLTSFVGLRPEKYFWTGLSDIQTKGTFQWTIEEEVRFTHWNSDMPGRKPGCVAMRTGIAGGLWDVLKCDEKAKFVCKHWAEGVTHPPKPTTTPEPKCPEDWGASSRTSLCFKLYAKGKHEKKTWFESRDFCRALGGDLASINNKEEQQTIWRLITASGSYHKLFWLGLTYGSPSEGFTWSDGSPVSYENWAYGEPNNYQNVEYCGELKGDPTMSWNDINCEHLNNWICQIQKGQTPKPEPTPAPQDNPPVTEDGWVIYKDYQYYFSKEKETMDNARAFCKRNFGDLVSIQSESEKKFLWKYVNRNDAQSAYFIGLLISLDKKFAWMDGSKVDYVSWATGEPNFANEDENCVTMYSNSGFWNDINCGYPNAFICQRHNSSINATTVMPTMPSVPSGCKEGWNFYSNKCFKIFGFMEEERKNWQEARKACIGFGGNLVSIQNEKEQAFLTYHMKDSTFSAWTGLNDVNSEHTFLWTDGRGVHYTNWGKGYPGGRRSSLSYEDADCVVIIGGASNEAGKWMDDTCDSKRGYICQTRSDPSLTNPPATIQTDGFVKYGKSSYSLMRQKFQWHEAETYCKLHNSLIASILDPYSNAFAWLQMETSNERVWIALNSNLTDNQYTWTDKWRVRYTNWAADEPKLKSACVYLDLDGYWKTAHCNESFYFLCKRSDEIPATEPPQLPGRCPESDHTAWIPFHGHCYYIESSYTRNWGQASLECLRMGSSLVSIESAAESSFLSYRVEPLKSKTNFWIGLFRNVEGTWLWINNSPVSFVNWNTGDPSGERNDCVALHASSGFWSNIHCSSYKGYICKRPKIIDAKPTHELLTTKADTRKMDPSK
Description: as §1, §2

Kd (DC-SIGN/Fc chimera): 8.82 nM | Kd [1]: 76.7 nM
B1: PSGL-1/mIgG2b fusion protein produced in Pichia pastoris (Fc fusion, UniProt Q14242 18-320, looked up)
chain: LQLWDTWADEAEKALGPLLARDRRQATEYEYLDYDFLPETEPPEMLRNSTDTTPLTGPGTPESTTVEPAARRSTGLDAGGAVTELTTELANMGNLSTDSAAMEIQTTQPAATEAQTTQPVPTEAQTTPLAATEAQTTRLTATEAQTTPLAATEAQTTPPAATEAQTTQPTGLEAQTTAPAAMEAQTTAPAAMEAQTTPPAAMEAQTTQTTAMEAQTTAPEATEAQTTQPTATEAQTTPLAAMEALSTEPSATEALSMEPTTKRGLFIPFSVSSVTHKGIPMAASNLSVNYPVGAPDHISVKQC
modifications: O-linked mannose glycans (Hex2-9) and N-linked glycans from expression in P. pastoris; sites not given
notes: extracellular domain; Homodimeric chimeric glycoprotein, about 250-300 kDa, secreted from P. pastoris GS115 by the pPICZalpha vector and purified on MabSelect SuRe; also called PSGL-1/mlgG2b; Pp/PSGL1-mIgG2b; not shown: Fc part of mouse IgG2b
